B1: DNA mismatch repair protein Mlh1 (Homo sapiens), P40692 (parent)
chain: MSFVAGVIRRLDETVVNRIAAGEVIQRPANAIKEMIENCLDAKSTSIQVIVKEGGLKLIQIQDNGTGIRKEDLDIVCERFTTSKLQSFEDLASISTYGFRGEALASISHVAHVTITTKTADGKCAYRASYSDGKLKAPPKPCAGNQGTQITVEDLFYNIATRRKALKNPSEEYGKILEVVGRYSVHNAGISFSVKKQGETVADVRTLPNASTVDNIRSIFGNAVSRELIEIGCEDKTLAFKMNGYISNANYSVKKCIFLLFINHRLVESTSLRKAIETVYAAYLPKNTHPFLYLSLEISPQNVDVNVHPTKHEVHFLHEESILERVQQHIESKLLGSNSSRMYFTQTLLPGLAGPSGEMVKSTTSLTSSSTSGSSDKVYAHQMVRTDSREQKLDAFLQPLSKPLSSQPQAIVTEDKTDISSGRARQQDEEMLELPAPAEVAAKNQSLEGDTTKGTSEMSEKRGPTSSNPRKRHREDSDVEMVEDDSRKEMTAACTPRRRIINLTSVLSLQEEINEQGHEVLREMLHNHSFVGCVNPQWALAQHQTKLYLLNTTKLSEELFYQILIYDFANFGVLRLSEPAPLFDLAMLALDSPESGWTEEDGPKEGLAEYIVEFLKKKAEMLADYFSLEIDEEGNLIGLPLLIDNYVPPLEGLPIFILRLATEVNWDEEKECFESLSKECAMFYSIRKQYISEESTLSGQQSEVPGSIPNSWKWTVEHIVYKALRSHILPPKHFTEDGNILQLANLPDLYKVFERC
partner: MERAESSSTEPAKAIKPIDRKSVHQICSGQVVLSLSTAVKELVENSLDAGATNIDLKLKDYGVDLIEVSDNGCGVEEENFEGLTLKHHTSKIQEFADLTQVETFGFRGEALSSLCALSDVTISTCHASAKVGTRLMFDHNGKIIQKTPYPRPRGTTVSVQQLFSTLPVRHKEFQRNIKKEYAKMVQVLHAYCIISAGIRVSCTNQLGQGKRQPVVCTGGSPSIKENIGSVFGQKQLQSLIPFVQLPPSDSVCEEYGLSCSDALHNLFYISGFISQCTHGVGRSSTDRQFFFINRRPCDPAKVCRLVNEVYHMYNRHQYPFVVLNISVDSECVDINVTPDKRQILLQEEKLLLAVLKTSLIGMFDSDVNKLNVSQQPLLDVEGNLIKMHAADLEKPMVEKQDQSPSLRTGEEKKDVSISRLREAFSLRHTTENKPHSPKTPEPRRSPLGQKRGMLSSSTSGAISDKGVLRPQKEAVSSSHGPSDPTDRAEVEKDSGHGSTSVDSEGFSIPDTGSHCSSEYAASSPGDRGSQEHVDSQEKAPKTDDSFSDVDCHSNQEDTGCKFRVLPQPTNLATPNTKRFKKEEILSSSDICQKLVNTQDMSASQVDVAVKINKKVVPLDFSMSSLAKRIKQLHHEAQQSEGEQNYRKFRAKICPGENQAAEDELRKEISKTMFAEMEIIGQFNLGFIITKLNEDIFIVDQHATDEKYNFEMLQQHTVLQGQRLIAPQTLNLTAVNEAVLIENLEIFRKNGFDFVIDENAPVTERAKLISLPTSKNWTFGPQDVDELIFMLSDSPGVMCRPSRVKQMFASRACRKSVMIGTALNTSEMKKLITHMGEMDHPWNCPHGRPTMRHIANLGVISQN
B2: DNA mismatch repair protein Mlh1 (Homo sapiens), P40692 (parent)
chain: B1 chain

Variants of: B1
Conditions: with pms2_human PMS2, P54278

Variant | effect of a mutation on the interaction
P28L | with no effect
M35R | with no effect
S44F | with no effect
G67R | with no effect
I68N | with no effect
C77Y | with no effect
I107R | with no effect
T117M | with no effect
T117R | with no effect
A128P | with no effect
V185G | with no effect
G244D | with no effect
V326A | with no effect

Variants of: B1
Conditions: with pms2_human PMS2, P54278
Remark: another data set of the same source

Variant | effect of a mutation on the interaction
P28L | disrupting interaction strength
M35R | disrupting interaction strength
S44F | disrupting interaction strength
G67R | disrupting interaction strength
I68N | disrupting interaction strength
C77Y | disrupting interaction strength
I107R | disrupting interaction strength
T117M | disrupting interaction strength
T117R | disrupting interaction strength
A128P | disrupting interaction strength
V185G | disrupting interaction strength
G244D | disrupting interaction strength
I32V | with no effect
V213M | with no effect
R217C | with no effect
I219L | with no effect
I219V | with no effect
R265H | with no effect
S406N | with no effect

Variants of: B1
Conditions: with pms2_human PMS2, P54278
Remark: another data set of the same source

Variant | effect of a mutation on the interaction
C77Y | decreasing interaction strength

Variants of: B2
Conditions: with exo1_human EXO1, Q9UQ84

Variant | effect of a mutation on the interaction
P28L | disrupting interaction strength
I32V | with no effect
M35R | disrupting interaction strength
S44F | disrupting interaction strength
G67R | disrupting interaction strength
I68N | disrupting interaction strength
C77Y | disrupting interaction strength
I107R | disrupting interaction strength
T117M | disrupting interaction strength
T117R | disrupting interaction strength
A128P | disrupting interaction strength
V185G | disrupting interaction strength
V213M | with no effect
R217C | with no effect
I219L | with no effect
I219V | with no effect
G244D | disrupting interaction strength
R265H | with no effect
V326A | with no effect
S406N | with no effect

From IntAct's records for PubMed 12810663
